From publication PMC4663120

Biological target: FhuA ΔC/Δ5L (E. coli) (UniProt P06971)
Assay: single-channel electrical recording on planar lipid bilayer

In the case of “nucleocapsid protein 7 (NCp7) (natural protein)”, the duration of transient current blockades is reported as < 1 ms.
